The values below are quoted from earlier work in paper PMC7589189.

One series addresses ActRIIA (Homo sapiens) (UniProt P27037).
The next series deals with ALK1-Fc (Homo sapiens) (UniProt P37023). Put plainly: SPR.
Series [1] concerns the target TβRII (Homo sapiens) (UniProt P37173).
The target is the same in series [2]. This is another data set of the same source.
The target is the same in series [3]. This is another data set of the same source.

Like-named read-outs stand apart in the source and are kept apart here.

Sequence of TβRII (Homo sapiens) (P37173 23-166): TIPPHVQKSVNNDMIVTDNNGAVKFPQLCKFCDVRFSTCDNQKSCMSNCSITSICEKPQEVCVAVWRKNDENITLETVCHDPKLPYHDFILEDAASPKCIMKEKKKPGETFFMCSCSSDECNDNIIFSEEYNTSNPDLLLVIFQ
Sequence of ALK1-Fc (Homo sapiens) (P37023 22-118): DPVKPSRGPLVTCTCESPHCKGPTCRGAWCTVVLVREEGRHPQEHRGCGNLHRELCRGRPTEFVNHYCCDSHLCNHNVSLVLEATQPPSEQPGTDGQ
Sequence of BMP-9 (Q9UK05 320-429): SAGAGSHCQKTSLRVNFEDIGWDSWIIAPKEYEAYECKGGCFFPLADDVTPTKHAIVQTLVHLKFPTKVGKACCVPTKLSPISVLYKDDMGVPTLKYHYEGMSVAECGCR
Sequence of pro-BMP-9 (Q9UK05 320-429): as above
Sequence of ActRIIA (Homo sapiens) (P27037 20-135): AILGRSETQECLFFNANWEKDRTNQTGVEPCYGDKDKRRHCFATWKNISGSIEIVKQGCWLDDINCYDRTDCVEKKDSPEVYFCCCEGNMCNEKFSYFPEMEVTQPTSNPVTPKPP
Sequence of TGF-β3 (P10600 301-412): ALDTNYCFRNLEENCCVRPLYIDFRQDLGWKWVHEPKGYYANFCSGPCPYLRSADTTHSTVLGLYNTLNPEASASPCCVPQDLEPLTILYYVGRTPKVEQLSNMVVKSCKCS
Sequence of TGF-β1 (P01137 279-390): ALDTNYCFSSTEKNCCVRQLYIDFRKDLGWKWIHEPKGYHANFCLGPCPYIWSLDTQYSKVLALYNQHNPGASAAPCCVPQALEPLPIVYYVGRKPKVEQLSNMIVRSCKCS
Sequence of BMP-7 (P18075 293-431): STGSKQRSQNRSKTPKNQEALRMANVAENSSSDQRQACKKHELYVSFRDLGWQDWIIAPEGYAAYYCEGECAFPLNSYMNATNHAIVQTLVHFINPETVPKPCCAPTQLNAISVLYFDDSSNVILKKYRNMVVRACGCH
Sequence of TGF-β2 (P61812 303-414): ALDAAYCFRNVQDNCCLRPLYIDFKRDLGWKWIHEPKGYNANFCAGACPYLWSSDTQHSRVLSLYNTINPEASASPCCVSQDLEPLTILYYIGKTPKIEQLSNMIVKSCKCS

Consider BMP-7 (from UniProt P18075), for which the Kd in the series with ActRIIA (Homo sapiens) was 8 nM.
In the case of BMP-9 (from UniProt Q9UK05), the Kd in the series with ALK1-Fc (Homo sapiens) is 0.048 nM.
TGF-β1 (from UniProt P01137): the Kd with TβRII (Homo sapiens) [1] was 0.2 nM.
Consider TGF-β2 (from UniProt P61812), for which the Kd in the series with TβRII (Homo sapiens) [2] is above 10 nM.
On to TGF-β3 (from UniProt P10600), for which the Kd in the series with TβRII (Homo sapiens) [3] is 0.5 nM.
Turning to pro-BMP-9 (from UniProt Q9UK05), in the series with ALK1-Fc (Homo sapiens), the Kd was 0.061 nM.
